Results from patent publication US20260042827A1, “ANTI-WT1 ANTIGEN-BINDING PROTEINS AND USES THEREOF” (UNIVERSITY HEALTH NETWORK, priority 2022, published 2026).

Test system: WT1 peptide presented by HLA-DP molecules on K562 transfectants
Assay: Flow cytometric staining of K562 transfectants with WT1-specific mAb
Format: cell-based, human
Details: flow cytometry; for recognition of naturally processed WT1 peptide on K562/DP cells: K562/DP2 and K562/DP4, endogenous or ectopic WT1; for recognition of exogenously-pulsed WT1 peptide presented by DP molecules: K562 transfectants pulsed with WT1 peptide
Protocol: FIGS. 5A-5S present data showing that WT1-specific mAbs bind to WTT peptide presented by HLA-DP molecules. FIGS. 5A-5B show binding of B7/21 (an anti-HLA-DP mAb) or WT1-specific mAbs to immobilized WT1 peptide or DP4/WT1 monomers as assessed by ELISA. m Abs were added to ELISA plate coated with WT1330-348 or CLIP (control) (FIG. 5A). mAbs were added to ELISA plate coated with DP4/WT1330-348 monomers or DP4/CLIP monomers (control) (FIG. 5B). The data shown represent the mean±SD of experiments performed in triplicates. Results are representative of two independent experiments. ns, not significant, *p<0.05, **p<0.01, ***p<0.001, ****p<0.0001 by two-way ANOVA with Bonferroni correction. […] Interaction strength was measured by a BLI binding assay. FIGS. 5F-5K show the indicated K562 transfectants pulsed with WT1330-348 or CLIP (control) and stained with WT1-specific mAb, 5H2, followed by PE-conjugated anti-mouse secondary Ab and flow cytometric analysis. FIGS. 5L-5S show the indicated K562 transfectants stained with WT1-specific mAb, 5H2, or isotype control mAb, followed by PE-conjugated anti-mouse secondary Ab and flow cytometric analysis.
For surface staining, cells were pelleted and resuspended in a mAb master mix diluted in a PBS/2% FBS buffer. Cells were incubated at 4° C. for 15 minutes and washed prior to analysis. Monoclonal antibodies recognizing the following targets were used for surface staining: CD4 (300505, 1:40, BioLegend), CD8 (301007, 1:100, BioLegend), pan HLA class II (361703, 1:100, BioLegend), NGFR (345131, 1:40, BioLegend), CD25 (301007, 1:100, BioLegend), CD62L (304805, 1:25, BioLegend), CD45RA (304111, 1:10, BioLegend), PD-1 (329905, 1:40, BioLegend), Tim-3 (345007, 1:20, BioLegend). Mouse isotype controls were purchased from BioLegend. Biotinylated Protein-L was purchased from GenScript. For intracellular cytokine staining, TCR or CAR-T cells were stimulated with indicated target cells at an E:T ratio of 1:1. Brefeldin A (BioLegend) was added to the culture media after 2 hours, and the cells were further cultured for 4 hours. Following the surface marker staining, the cells were fixed and permeabilized using the Cytofix/Cytoperm Kit (BD Biosciences) and stained with FITC-anti-IL-2 (500305, 1:20, BioLegend), APC-anti-TNF-α (502913, 1:100, BioLegend), and PE-Cy7-anti-IFN-7 (506517, 1:200, BioLegend). The frequency of cytokine-producing cells within the CD8^+ or CD4^+ T cell population was determined by flow cytometric analysis. For intracellular WT1 staining, cells were fixed and permeabilized using the Cytofix/Cytoperm Kit (BD Biosciences) and stained with mouse anti-WT1 mAb (NB110-60011SS, 1:200, Novus Biologicals), followed by BV421-anti-mouse IgG (405317, 1:20, BioLegend). […]

B1: 5H2: mouse WT1-specific mAb raised against WT1330-348 peptide; VH SEQ ID NO: 37, VL SEQ ID NO: 38 (antibody, V domains shown)
VH: EVQLQQSGAELVRPGALVKLSCKASGFNIKDYYMHWVKQRPEQGLEWIGWIDPENGNTIYDPKFQGKASITADTSSNTAYLQLSSLTSGDTAVYYCTRDGYYMVFAYWGQGTLVTVSA
VL: DIQMTQSPSSLSASLGGKVTITCKASQDINKCIAWYKHKPGKGPRLLIHYTSILQPGIPSRFSGSGSGRDYSFSISNLEPEDIATYYCLQYDNLYTFGGGTKLEIK
modifications: 5H2 - VH; 5H2 - VL
B1 was tested, and the “recognition of naturally processed WT1 peptide on K562/DP cells” value was “can bind to K562/DP2 and K562/DP4 cells which express endogenous WT1”, the “recognition of naturally processed WT1 peptide on K562/DP cells” value (listed as WT1-specific mAb) was “can recognize naturally processed WT1 peptide presented by HLA-DP2” and the “recognition of exogenously-pulsed WT1 peptide presented by DP molecules” value was “can recognize exogenously-pulsed WT1330-348 presented by multiple DP molecules such as DP2 and DP5 in addition to DP4”. For the same molecule, the “recognition of exogenously-pulsed WT1 peptide presented by DP molecules” value (listed as WT1-specific mAb) was “can recognize exogenously-pulsed WT1328-348 peptide presented by different HLA-DP molecules”.
